{"source": "paper PMC8111768", "key": {"[1]": {"target": "VIC16 REFORMab SDIEALGA (G236A/S239D/A330L/I332E) (mouse | human)", "assay": "SPR", "details": "remark: other sources report otherwise"}, "[2]": {"target": "T1, VIC16 human IgG1 (wild type VIC16-human IgG1 REFORMab) (mouse | human)", "assay": "SPR", "details": "remark: other sources report otherwise"}, "[3]": {"target": "VIC16 REFORMab EFTEA (G236A/S267E/H268F/S324T/I332E) (mouse | human)", "assay": "SPR", "details": "remark: other sources report otherwise"}, "[4]": {"target": "VIC16 REFORMab KWES (printed K236W/E333S) (mouse | human)", "assay": "SPR", "details": "remark: other sources report otherwise"}, "[5]": {"target": "T1, VIC16 human IgG1 (wild type VIC16-human …)", "assay": "BLI"}, "[6]": {"target": "VIC16 human IgG1 (wild type VIC16-human IgG1 REFORMab) (mouse | human)", "assay": "BLI", "remark": "listed apart in the source"}}, "data": [{"binder": "recombinant human FcγR2B, P31994 43-310 (receptor, here or on the partner: soluble ectodomain by convention (UniProt topology); tag not stated) TPAAPPKAVLKLEPQWINVLQEDSVTLTCRGTHSPESDSIQWFHNGNLIPTHTQPSYRFKANNNDSGEYTCQTGQTSLSDPVHLTVLSEWLVLQTPHLEFQEGETIVLRCHSWKDKPLVKVTFFQNGKSKKFSRSDPNFSIPQANHSHSGDYHCTGNIGYTLYSSKPVTITVQAP", "values": [{"measurement": "Kd", "setting": "[1]", "value": 21, "unit": "µM"}, {"measurement": "Kd", "setting": "[2]", "value": 23, "unit": "µM"}, {"measurement": "Kd", "setting": "[3]", "value": 1.2, "unit": "µM"}, {"measurement": "Kd", "setting": "[4]", "value": 224, "unit": "µM"}]}, {"binder": "recombinant murine FcγRIV, A0A0B4J1G0 21-249 (receptor, modifications not checked) GLQKAVVNLDPKWVRVLEEDSVTLRCQGTFSPEDNSIKWFHNESLIPHQDANYVIQSARVKDSGMYRCQTALSTISDPVQLEVHMGWLLLQTTKWLFQEGDPIHLRCHSWQNRPVRKVTYLQNGKGKKYFHENSELLIPKATHNDSGSYFCRGLIGHNNKSSASFRISLGDPGSPSMFPPWHQ", "values": [{"measurement": "Kd", "setting": "[5]", "value": 0.24, "unit": "µM"}]}, {"binder": "recombinant murine FcγRIIb, P08101 30-330 (receptor, modifications not checked) THDLPKAVVKLEPPWIQVLKEDTVTLTCEGTHNPGNSSTQWFHNGRSIRSQVQASYTFKATVNDSGEYRCQMEQTRLSDPVDLGVISDWLLLQTPQLVFLEGETITLRCHSWRNKLLNRISFFHNEKSVRYHHYSSNFSIPKANHSHSGDYYCKGSLGRTLHQSKPVTITVQGPKSSRSLP", "values": [{"measurement": "Kd", "setting": "[5]", "value": 14.9, "unit": "µM"}]}, {"binder": "recombinant murine FcγRIII, P08508 31-261 (receptor, modifications not checked) ALPKAVVKLDPPWIQVLKEDMVTLMCEGTHNPGNSSTQWFHNGRSIRSQVQASYTFKATVNDSGEYRCQMEQTRLSDPVDLGVISDWLLLQTPQRVFLEGETITLRCHSWRNKLLNRISFFHNEKSVRYHHYKSNFSIPKANHSHSGDYYCKGSLGSTQHQSKPVTITVQDPATTSSISLVWYHT", "values": [{"measurement": "Kd", "setting": "[5]", "value": 2.83, "unit": "µM"}]}, {"binder": "recombinant human FcγR2A, P12318 34-317 (receptor, modifications not checked) QAAAPPKAVLKLEPPWINVLQEDSVTLTCQGARSPESDSIQWFHNGNLIPTHTQPSYRFKANNNDSGEYTCQTGQTSLSDPVHLTVLSEWLVLQTPHLEFQEGETIMLRCHSWKDKPLVKVTFFQNGKSQKFSHLDPTFSIPQANHSHSGDYHCTGNIGYTLFSSKPVTITVQVPSMGSSSPMG", "values": [{"measurement": "Kd", "setting": "[2]", "value": 30, "unit": "µM"}]}, {"binder": "recombinant murine FcγRI (receptor) EVVNATKAVITLQPPWVSIFQKENVTLWCEGPHLPGDSSTQWFINGTAVQISTPSYSIPEASFQDSGEYRCQIGSSMPSDPVQLQIHNDWLLLQASRRVLTEGEPLALRCHGWKNKLVYNVVFYRNGKSFQFSSDSEVAILKTNLSHSGIYHCSGTGRHRYTSAGVSITVKELFTTPVLRASVSSPFPEGSLVTLNCETNLLLQRPGLQLHFSFYVGSKILEYRNTSSEYHIARAEREDAGFYWCEVATEDSSVLKRSPELELQVLGPQSSAP", "values": [{"measurement": "Kd", "setting": "[6]", "value": 0.08, "unit": "µM"}]}]}
